Data as given in PMC7881039.

Assays:
[1] = molecular target: human cystatin C (Cst-3), E. coli expressed (human) (UniProt P01034); assay: SEC; gel permeation on Superdex 200 in 20 mM Tris, 150 mM NaCl, pH 7.1, after cation exchange; monomer and dimer told by elution
papain = papain (UniProt P00784)
Sequence of UniProt P00784 (P00784 134-345): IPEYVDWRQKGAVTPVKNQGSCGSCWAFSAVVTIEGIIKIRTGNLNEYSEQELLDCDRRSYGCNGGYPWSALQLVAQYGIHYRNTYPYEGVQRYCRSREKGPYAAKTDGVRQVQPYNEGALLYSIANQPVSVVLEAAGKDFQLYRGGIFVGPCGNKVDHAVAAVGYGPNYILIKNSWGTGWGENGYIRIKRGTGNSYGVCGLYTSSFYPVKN

Row | stoichiometry N [1] | inhibition of papain activity (colorimetric peptide substrate Z-Phe-Arg-pNA, pH 5.5) by 60 nM Cst-3 preincubated with equimolar heparin or HS hexasaccharide, against apo Cst-3 (papain) [%] | Substance
1 | 2 |  | human cystatin C (Cst-3), E. coli expressed (from UniProt P01034 27-146) (natural protein)
2 |  | 80 | murine cystatin C (Cst-3), E. coli expressed (from UniProt P21460 21-140) (natural protein)
